Measurements reported in patent US20210347865A1 (STATEN BIOTECHNOLOGY B V, published 2021).
Positions count from the first letter of the chain named.

B1: 5E5 WT IgG (antibody, V domains shown)
VH: QLQLVESGGGLVQPGGSLRLSCAASGFTFGTYSMRWVRQVPRKALEWVSSISTDGGGTAYRDSVKGRFTISRDNAKNTLYLQMNNLKPEDTAIYYCVIAGYSDWGQGTQVTVSS
VL: ATMLTQSPGSLSVVPGESASISCKTSQGLVHSDGKTYFYWFLQKPGQSPQQLIYQVSNRASGVPDRFTGSGSGTDFTLKISGVKAEDAGVYYCAQGTYYPHTFGSGTRLEIK
notes: Full-length IgG captured by an anti-human Fc antibody
B2: 29A06-Nhance antibody (antibody, human IgG1, kappa, V domains shown)
VH: B1 VH
VL: DVVLTQTPGSLSVVPGESASISCKASQNLVHSNGKTYLYWLLQKPGQSPQRLIYQVSNRGSEVPDRFTGSGSGTDFTLKISGVKAEDAGVYYCAQGTYWPKTFGQGTKLEIKR
notes: IgG1 heavy chain with the Nhance Fc variant, and a kappa light chain; This is probably a print error; also called mAb 29A6-Nhance; 29A6-Nhance
B3: 29G02 IgG (antibody, V domains shown)
VH: B1 VH
VL: DVVLTQTPGSLSVVPGESASISCKATQSLVHIDGKTYLYWLLQKPGQSPQRLIYQVSTRDSGVPDRFTGAGSGAEFTLKISGVKAEDAGVYYCAQDTYSTKTFGQGTKLEIK
B4: 29B03 IgG (antibody, V domains shown)
VH: B1 VH
VL: DVVLTQTPGSLSVVPGESASISCKAGQNLVHPDGKTYLYWLLQKPGQSPQRLIYQVSNRDSGVPDRFTGSGSGTDFTLKISGVKVEDAGVYYCAQGTYWPKTFGQGTKLEIK
B5: 29G11 IgG (antibody, V domains shown)
VH: B1 VH
VL: B3 VL with E17G, T26S, H31Y, I32S, L42R, T58N, D60P, A70S, A74T, E75D
B6: 29F10 IgG (antibody, V domains shown)
VH: B1 VH
VL: B4 VL with S18P, I21V, G26S, N28S, D60G, K79E, V85A

Experiments:
native human ApoC3 [1] = biological target: T1, native human ApoC3 (human, UniProt P02656 21-99, biotinylated in the captured-antigen assays (Tables 6 and 8); sites not stated); assay: SPR, biotinylated antigen captured on streptavidin chip, IgG as analyte, pH 7.4
T1 construct: also called nhuApoC3; native huApoC3
T1 sequence (P02656 21-99): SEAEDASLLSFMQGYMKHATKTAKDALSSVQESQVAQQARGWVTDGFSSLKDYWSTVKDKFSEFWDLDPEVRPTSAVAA

native human ApoC3 [2] = biological target: T1, native human ApoC3; assay: SPR, IgG captured via anti-human Fc, ApoC3 analyte 400 nM
Method: (§1) Immobilization was performed in accordance with the method provided by Biacore in the NHS/EDC kit (Biacore AB). Briefly, after activation of the chip, a solution of 30 μg/ml anti-human Fcγ antibody in 10 mM acetate buffer with pH 5.0 was injected until the surface density reached approximately 10,000 RU. […] Following antibody capture, 100 μl of HBS-EP buffer was injected and passed through the flow cells at 30 μl/min. To bind target, 60 μl of 400 nM, 200 nM, 100 nM, or 50 nM ApoC3 protein in HBS-EP buffer was injected. An off-rate wash was performed by injection of HBS-EP buffer at 30 μl/min for 5 min. After dissociation, the flow cell surfaces were regenerated by injecting 20 μl of 10 mM glycine at pH 1.5.
(§2) The resulting sensorgrams were analysed with BIAevaluation 4.1 software using the Langmuir 1:1 binding model to derive binding kinetics. Data was zero adjusted and the reference cell sensorgrams were subtracted. A no-analyte blank assay was used for double referencing the sensorgrams corresponding to nhuApoC3 and rcyApoC3 injections. The dissociation and association phase sensorgrams were fitted separately for the 4 different concentration curves. Sensorgrams were excluded from the fitting if maximum RU values were below the limit of detection (i.e., <5 RU). SPR signals were too low to calculate kinetic parameters for […].

native human ApoC3 [3] = biological target: T1, native human ApoC3; assay: SPR, antigen immobilized on CM5 chip, IgG as analyte, pH 7.4; footnote: n/a: not applicable; below the limits of detection kd: 1E-06 1/s
native human ApoC3 [4] = biological target: T1, native human ApoC3; assay: SPR, IgG captured via anti-human Fc, ApoC3 analyte 100 nM
Method: as §1, §2

native human ApoC3 [5] = biological target: T1, native human ApoC3; assay: SPR, IgG captured via anti-human Fc, ApoC3 analyte 200 nM
Method: as §1, §2

native human ApoC3 [6] = biological target: T1, native human ApoC3; assay: SPR, IgG captured via anti-human Fc, ApoC3 analyte 50 nM
Method: as §1, §2

[7] = biological target: T2, recombinant cynomolgus ApoC3 (cynomolgus monkey, UniProt P18659 21-99, biotinylated in the captured-antigen assays (Tables 6 and 8); sites not stated); assay: SPR, Table 9 ('29A6-Nhance as the captured antigen'), analyte 0.78-25 nM, pH 7.4
T2 construct: No cleavage site is stated, so none is applied; also called rcyApoC3; bio-rcyApoC3
T2 sequence (P18659 21-99 limits assumed): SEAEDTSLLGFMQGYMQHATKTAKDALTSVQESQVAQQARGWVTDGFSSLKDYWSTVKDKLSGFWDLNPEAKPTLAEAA
Method: (§3) For the captured antigen approach, biotinylated native human ApoC3 was captured on a streptavidin coated chip (GE Healthcare #BR100032) at pH 7.4. In accordance with the methods provided by Biacore, 20 μl of 10 μg/ml biotinylated human ApoC3 was injected until the surface density reached approximately 500 RU. SPR methods and data analysis were followed as described in Example 2.1. SPR was also performed using these methods with the 29A06-Nhance antibody as the captured antigen. The 29A06-Nhance antibody comprises the heavy chain amino acid sequence set forth in SEQ ID NO: 38 and the light chain amino acid sequence set forth in SEQ ID NO: 50.
(§4) Similarly to the immobilized antigen approach, most of the clones had high affinity towards the human target and low off-rate values.

native human ApoC3 [8] = biological target: T1, native human ApoC3; assay: as above
Method: as §3, §4

[9] = biological target: T2, recombinant cynomolgus ApoC3; assay: SPR, biotinylated antigen captured on streptavidin chip, IgG as analyte, pH 7.4
[10] = biological target: T2, recombinant cynomolgus ApoC3; assay: SPR, antigen immobilized on CM5 chip, IgG as analyte, pH 7.4; antigen immobilized on chip, IgG as analyte (12.5-0.8 nM)
native human ApoC3 [11] = biological target: T1, native human ApoC3; assay: SPR, antigen immobilized on CM5 chip, IgG as analyte, pH 7.4
[12] = biological target: T2, recombinant cynomolgus ApoC3; assay: SPR, biotinylated antigen captured on streptavidin chip, IgG as analyte, pH 7.4; biotinylated antigen captured on streptavidin chip, IgG as analyte
[13] = biological target: T2, recombinant cynomolgus ApoC3; assay: SPR, IgG captured via anti-human Fc, ApoC3 analyte 400 nM
Method: as §1, §2

native human ApoC3 [14] = biological target: T1, native human ApoC3; assay: SPR, biotinylated antigen captured on streptavidin chip, IgG as analyte, pH 7.4; footnote: n/a: not applicable; below the limits of detection kd: 1E-06 1/s
[15] = biological target: T2, recombinant cynomolgus ApoC3; assay: SPR, IgG captured via anti-human Fc, ApoC3 analyte 100 nM
Method: as §1, §2

[16] = biological target: T2, recombinant cynomolgus ApoC3; assay: SPR, IgG captured via anti-human Fc, ApoC3 analyte 200 nM
Method: as §1, §2

[17] = biological target: T2, recombinant cynomolgus ApoC3; assay: SPR, antigen immobilized on CM5 chip, IgG as analyte, pH 7.4
[18] = biological target: T2, recombinant cynomolgus ApoC3; assay: SPR, IgG captured via anti-human Fc, ApoC3 analyte 50 nM
Method: as §1, §2

[19] = biological target: T2, recombinant cynomolgus ApoC3; assay: SPR, antigen immobilized on CM5 chip, IgG as analyte, pH 7.4; antigen immobilized on chip, IgG as analyte (50-0.8 nM)

Binder	Kd (native human ApoC3 [1]) [nM]	koff (native human ApoC3 [1]) [s⁻¹]	kon (native human ApoC3 [1]) [M⁻¹ s⁻¹]	Kd (native human ApoC3 [2]) [nM]	koff (native human ApoC3 [2]) [s⁻¹]	kon (native human ApoC3 [2]) [M⁻¹ s⁻¹]	Kd (native human ApoC3 [4]) [nM]	koff (native human ApoC3 [4]) [s⁻¹]	kon (native human ApoC3 [4]) [M⁻¹ s⁻¹]	Kd (native human ApoC3 [5]) [nM]	koff (native human ApoC3 [5]) [s⁻¹]	kon (native human ApoC3 [5]) [M⁻¹ s⁻¹]	Kd (native human ApoC3 [6]) [nM]	koff (native human ApoC3 [6]) [s⁻¹]	kon (native human ApoC3 [6]) [M⁻¹ s⁻¹]	Kd [9] [nM]	Kd (native human ApoC3 [11]) [nM]	koff (native human ApoC3 [11]) [s⁻¹]	kon (native human ApoC3 [11]) [M⁻¹ s⁻¹]	koff [12] [s⁻¹]	further results
B1	0.05	1.8e-05	350000	0.741	0.000122	165000	0.734	0.000121	165000	0.77	0.000128	166000	0.695	0.000114	164000	–	–	–	–	–	koff (native human ApoC3 [3]): < 1e-06 s⁻¹
B2	–	–	–	–	–	–	–	–	–	–	–	–	–	–	–	–	–	–	–	–	Kd [7]: 0.675 nM; Kd (native human ApoC3 [8]): 0.023 nM; kon (native human ApoC3 [8]): 770000 M⁻¹ s⁻¹
B3	0.02	3.3e-05	1.31e+06	3.04	0.000752	247000	2.52	0.000758	301000	2.57	0.000733	286000	2.31	0.000718	311000	0.37	0.01	1.6e-05	1.32e+06	0.000275	Kd [10]: 0.5 nM; koff [10]: 0.000552 s⁻¹; kon [10]: 1.11e+06 M⁻¹ s⁻¹; kon [12]: 750000 M⁻¹ s⁻¹
B4	–	–	–	0.401	8.63e-05	215000	0.336	8e-05	238000	0.35	8.44e-05	241000	–	–	–	0.33	–	–	–	–	koff [9]: 0.000104 s⁻¹; kon [9]: 320000 M⁻¹ s⁻¹; Kd [13]: 367 nM; koff [13]: 0.0145 s⁻¹; kon [13]: 39600 M⁻¹ s⁻¹; koff (native human ApoC3 [3]): < 1e-06 s⁻¹; koff (native human ApoC3 [14]): < 1e-06 s⁻¹; Kd [15]: 385 nM; koff [15]: 0.014 s⁻¹; kon [15]: 36300 M⁻¹ s⁻¹; Kd [16]: 297 nM; koff [16]: 0.0137 s⁻¹; kon [16]: 46100 M⁻¹ s⁻¹; Kd [17]: 0.18 nM; koff [17]: 6.7e-05 s⁻¹; kon [17]: 380000 M⁻¹ s⁻¹; Kd [18]: 190 nM; koff [18]: 0.0127 s⁻¹; kon [18]: 66800 M⁻¹ s⁻¹
B5	0.05	7.3e-05	1.38e+06	5.76	0.00119	207000	4.85	0.00117	241000	5.21	0.00122	234000	4.79	0.00115	240000	0.25	0.04	6.3e-05	1.44e+06	0.000228	Kd [10]: 0.38 nM; koff [10]: 0.000531 s⁻¹; kon [10]: 1.4e+06 M⁻¹ s⁻¹; kon [12]: 920000 M⁻¹ s⁻¹
B6	–	–	–	1.8	0.000219	122000	1.63	0.000219	134000	1.63	0.000217	133000	1.71	0.000246	144000	1.75	0.04	2.4e-05	620000	0.000388	koff (native human ApoC3 [14]): < 1e-06 s⁻¹; Kd [19]: 2.79 nM; koff [19]: 0.000774 s⁻¹; kon [19]: 280000 M⁻¹ s⁻¹; kon [12]: 220000 M⁻¹ s⁻¹
